The supplement of paper PMC10724198
± gives the standard deviation of the averaged measurements.

Test system: Saccharomyces cerevisiae
Assay: protein stability index of tFT-peptide fusion (C-terminal peptide) (PSI (0-1 scale)); higher = more stable (slower turnover)
Details: genetic background: wild type; temperature: 30 C
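Note: PSI is a weighted mean of sequencing reads over stability bins, variants kept only with over 10 reads, mCherry proximal and sfGFP distal, peptide attached via GGGS linker.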

Row | Sequence | protein stability index
1 | VSLLCFCFGCVL | 0.604 ± 0.022
2 | VITGGFVVGCCG | 0.623 ± 0.018
3 | FGVRTLTFISRT | 0.637 ± 0.0081
4 | YRGSNWEGDTPS | 0.667 ± 0.054
5 | LNSTDMNKKKFK | 0.719 ± 0.0092
6 | LWGVGAGPEDVG | 0.68 ± 0.014
7 | HLPSPLPSPSFH | 0.6061 ± 0.0017
8 | PAVAPRSTYAWH | 0.69619 ± 0.00054
9 | CGRFGRGVDLGN | 0.687 ± 0.02
10 | RKKKTRGKEKRR | 0.683 ± 0.097
11 | AGLGWGARQGAL | 0.67 ± 0.019
12 | LRSHKIVDQDPF | 0.7235 ± 0.005
13 | GCGEGVGASVGR | 0.641 ± 0.011
14 | KLQKINKIKNEI | 0.685 ± 0.032
15 | VVVGVGGCVDMG | 0.676 ± 0.014
16 | VRVGRGGKELND | 0.576 ± 0.11
17 | PYEFRLISRNTR | 0.669 ± 0.095
18 | WLDDCVRVGMRI | 0.6722 ± 0.0033
19 | GMGESGAGMVGW | 0.727 ± 0.013
20 | SWFVGFDGAVGG | 0.774 ± 0.088
21 | GFHCRLRVSTFG | 0.585 ± 0.019
22 | QLHTTENHHRRL | 0.792 ± 0.032
23 | GVGVWWRGVIMG | 0.615 ± 0.0095
24 | GALVGFPAFFLL | 0.654 ± 0.011
25 | VPRCLPVGLLFF | 0.71 ± 0.19

Row | Sequence | protein stability index
26 | SPLLYPPPSTSI | 0.715 ± 0.042
27 | AVVFCSIPCLRV | 0.575 ± 0.052
28 | KKKKTKPKPKRM | 0.6594 ± 0.0047
29 | ERASGNWQVYKG | 0.639 ± 0.011
30 | ACGGVWASGRGG | 0.705 ± 0.017
31 | IWGLSSLYGCGW | 0.728 ± 0.011
32 | PPPAPPPAIPHP | 0.687 ± 0.0073
33 | EGINVEICISLL | 0.573 ± 0.083
34 | RWGGSSPGRSFA | 0.766 ± 0.0091
35 | PSPRPPPSPPLP | 0.695 ± 0.037
36 | ASEKFGIMSTML | 0.662 ± 0.045
37 | PPSPEPGSPHRF | 0.734 ± 0.018
38 | GGWWGGLGCFMV | 0.699 ± 0.034
39 | PPPPPPTPPPCL | 0.694 ± 0.057
40 | LSTCSFSFFLHT | 0.66 ± 0.019
41 | SPSPPLASPPPL | 0.686 ± 0.016
42 | RNRNDRIKKLKR | 0.667 ± 0.014
43 | SLGGLVSGPGLV | 0.687 ± 0.032
44 | RAKRPAGTSTRG | 0.604 ± 0.016
45 | SVGLPPPPPFPP | 0.629 ± 0.017
46 | FWEIRSGSNHRH | 0.713 ± 0.028
47 | AGRSAHMEVRHE | 0.712 ± 0.047
48 | PVALYFIREFSP | 0.699 ± 0.013
49 | GRKKTSAGGNQE | 0.702 ± 0.11
50 | PRPPPPSVARVP | 0.64711 ± 0.0003

Row | Sequence | protein stability index
51 | SPPAPACTSYSL | 0.7018 ± 0.0019
52 | IVRTDTKPYEQS | 0.587 ± 0.013
53 | LMHDIRLCSSVV | 0.702 ± 0.074
54 | HGSVGRIAHVLS | 0.6672 ± 0.0062
55 | PSAGPVVLPTPP | 0.704 ± 0.013
56 | WADLIPDSFGDM | 0.741 ± 0.059
57 | PPPVPPSPSPPP | 0.684 ± 0.013
58 | GVRLRNLTIITI | 0.697 ± 0.037
59 | SPPPPPPRPLTP | 0.672 ± 0.027
60 | PTHCWSGLSGKG | 0.703 ± 0.016
61 | GHVCTRCVWPRV | 0.606 ± 0.055
62 | GVLLGSKFCQQL | 0.641 ± 0.093
63 | DLLAVPALTLHL | 0.677 ± 0.14
64 | QEREAGVTALIR | 0.707 ± 0.04
65 | LIGICCDSGSHC | 0.691 ± 0.057
66 | RAASLVSCSLIL | 0.672 ± 0.024
67 | KGEGRERSRSRK | 0.768 ± 0.034
68 | IGGRRGVTGIFV | 0.699 ± 0.064
69 | CVLSFVRGCLGA | 0.587 ± 0.067
70 | PALPPAPPPPPP | 0.693 ± 0.044
71 | LPPLLAPPVSPL | 0.698 ± 0.039
72 | MLLLIDTSGGWS | 0.71 ± 0.011
73 | LGAWAGGGASSG | 0.704 ± 0.03
74 | LPPLAACAPSAV | 0.615 ± 0.051
75 | NDGIKYQSEKRR | 0.7 ± 0.02

Row | Sequence | protein stability index
76 | AILFGSSSWVVV | 0.659 ± 0.032
77 | ISVEELKSIKKK | 0.6296 ± 0.0019
78 | RRHPRLPSLSGL | 0.651 ± 0.044
79 | GGTEGSGWSGGG | 0.638 ± 0.029
80 | NTTIQLWVERRQ | 0.679 ± 0.063
81 | GCCGGRLWEGGG | 0.707 ± 0.013
82 | PLSPLPPSPGPS | 0.766 ± 0.051
83 | KGTQINNRCKLK | 0.684 ± 0.078
84 | KIKNNKNKKKKS | 0.693 ± 0.01
85 | RKKKKKEKKKVE | 0.741 ± 0.037
86 | GCGGLCQGGGGW | 0.704 ± 0.084
87 | HVPRFLPFLSSL | 0.739 ± 0.033
88 | CSNGVPLTVLLM | 0.525 ± 0.0057
89 | SNHTIIGNVVHF | 0.7131 ± 0.0056
90 | KNKTLNKIIRLP | 0.717 ± 0.042
91 | PPPAPPTFPLRS | 0.684 ± 0.087
92 | CASACPPPPPAT | 0.726 ± 0.019
93 | PPPPPPPLPRSP | 0.721 ± 0.039
94 | PYCVTLTLPFSS | 0.7134 ± 0.0047
95 | RRGLRVTETPVR | 0.772 ± 0.011
96 | PPFPPPPRPADH | 0.741 ± 0.023
97 | GGGGGGVSLGGR | 0.696 ± 0.072
98 | PLPPPAFPPLDP | 0.671 ± 0.021
99 | RLKLKSECYSPL | 0.667 ± 0.034
100 | GPVVHSAPRVRL | 0.686 ± 0.069

Row | Sequence | protein stability index
101 | PLCPPPPYPPRS | 0.745 ± 0.043
102 | GWGSGSYRRRAV | 0.695 ± 0.055
103 | RPGSWINEITKE | 0.69944 ± 0.00024
104 | YSSGKPMEITIA | 0.678 ± 0.084
105 | KKNMIIRVMIGV | 0.495 ± 0.074
106 | RGRGGDERSVRG | 0.644 ± 0.013
107 | NGVVAYHVQSFC | 0.6 ± 0.011
108 | GLEIGMSQVSMG | 0.645 ± 0.036
109 | VGVGRRGGVGEG | 0.654 ± 0.029
110 | CLVSVDYFPPKL | 0.75 ± 0.16
111 | IKTKKKKKKKRD | 0.686 ± 0.0099
112 | GLWAEGCGGEVV | 0.653 ± 0.0083
113 | LSPLPPSPPPST | 0.543 ± 0.025
114 | LFIGLAAVHAHY | 0.687 ± 0.11
115 | HYEIFSCDPGCD | 0.746 ± 0.024
116 | LLLTGYGLLPST | 0.676 ± 0.079
117 | CPALSPSPTLAS | 0.68 ± 0.15
118 | KKKKNKKKKKPK | 0.615 ± 0.041
119 | LAFSGAWGILPL | 0.682 ± 0.067
120 | PPSLPSVRLSLS | 0.685 ± 0.027
121 | RSHAHTRNGSSA | 0.675 ± 0.022
122 | LGNFENDEGSQK | 0.735 ± 0.026
123 | RQQKTNERRPRT | 0.648 ± 0.04
124 | PPPRSPLLPSPL | 0.687 ± 0.019
125 | DRHLNRPRVKKR | 0.758 ± 0.076

Row | Sequence | protein stability index
126 | HRPSPLPPRVPL | 0.673 ± 0.033
127 | CPPPTPPAPPLP | 0.74 ± 0.033
128 | GGGGGGGGRARE | 0.707 ± 0.09
129 | VVVSRARSSRSS | 0.6332 ± 0.0021
130 | RGFLHVRCRDTC | 0.7049 ± 0.0011
131 | NKHYIQSHTDPD | 0.698 ± 0.023
132 | VGEGSGEWKFLD | 0.809 ± 0.06
133 | TWVGPIRISNQQ | 0.639 ± 0.01
134 | VDFVGFGGVEGG | 0.75 ± 0.059
135 | GRGEEKRDGGRR | 0.673 ± 0.059
136 | CFLSFLLFSSSP | 0.558 ± 0.025
137 | NRSMFSSQNDNA | 0.671 ± 0.066
138 | NQPSHPRPHAER | 0.666 ± 0.045
139 | SLRSSRSRIKKG | 0.624 ± 0.086
140 | IGVRSPSTHIVN | 0.72 ± 0.018
141 | DRGWPHTYNTIL | 0.639 ± 0.1
142 | TLWLSGGGGMVI | 0.731 ± 0.04
143 | GGCCGRVWGSVE | 0.71 ± 0.054
144 | PGLGVGATRCVH | 0.734 ± 0.018
145 | GLYSIAGGSFGE | 0.721 ± 0.026
146 | SRSGVSTRGVPC | 0.709 ± 0.0073
